Data on 13 molecules can be found in PMC8189816, “Molecular Basis for the Interactions of Human Thioredoxins with Their Respective Reductases” (Oxidative Medicine and Cellular Longevity, 2021).

As a reminder, the Kd is the free concentration of one partner at which half of the binding sites on the other are occupied at equilibrium, for simple one-to-one binding. What is called Ki is a measure of affinity in units of concentration, obtained from inhibition or displacement.

Substitutions are numbered along the chain they refer to. Names and notes keep the numbering of the source.

The chains are these.
T1: recombinant selenocysteine-containing rat TrxR1 (rat, UniProt O89049 1-499, selenocysteine (selenocysteine-containing; low degree of incorporation presumed by the paper))
T1 construct: rat cytosolic thioredoxin reductase 1, selenocysteine-containing; Used for all enzymatic assays (insulin reduction); also called recombinant selenocysteine-containing TrxR
T1 sequence (looked up): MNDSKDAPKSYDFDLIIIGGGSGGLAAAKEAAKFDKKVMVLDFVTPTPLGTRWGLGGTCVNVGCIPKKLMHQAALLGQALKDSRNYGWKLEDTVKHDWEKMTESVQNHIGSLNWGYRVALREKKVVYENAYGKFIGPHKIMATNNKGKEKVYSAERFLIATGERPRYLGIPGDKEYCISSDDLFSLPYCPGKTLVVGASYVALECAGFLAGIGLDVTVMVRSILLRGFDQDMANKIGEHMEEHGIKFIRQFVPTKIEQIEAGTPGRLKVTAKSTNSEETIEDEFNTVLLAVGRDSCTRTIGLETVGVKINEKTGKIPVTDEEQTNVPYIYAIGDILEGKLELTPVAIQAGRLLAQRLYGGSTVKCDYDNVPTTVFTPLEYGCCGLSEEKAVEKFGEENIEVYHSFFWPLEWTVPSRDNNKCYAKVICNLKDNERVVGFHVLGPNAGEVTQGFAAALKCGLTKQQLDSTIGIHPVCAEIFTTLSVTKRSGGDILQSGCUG

B1: human Trx1 K39E (natural protein)
chain: MVKQIESKTAFQEALDAAGDKLVVVDFSATWCGPCKMIEPFFHSLSEKYSNVIFLEVDVDDCQDVASECEVKCMPTFQFFKKGQKVGEFSGANKEKLEATINELV
B2: human Trx1 K36E (natural protein)
chain: B1 chain with K36E, E39K
B3: human thioredoxin 1 (Trx1), wild-type (natural protein)
chain: B1 chain with E39K
B4: human Trx1 C32,35S (redox-inactive active site double mutant) (natural protein, UniProt P10599 1-105, looked up)
chain: B1 chain with C32S, C35S, E39K
notes: human cytosolic thioredoxin 1, both active site cysteinyl residues exchanged for seryl residues; also called hTrx1C32,35S; double cysteinyl mutant
B5: human Trx1 K72E (natural protein)
chain: B1 chain with E39K, K72E
B6: human Trx1 S67H (natural protein)
chain: B1 chain with E39K, S67H
B7: human Trx1 D58,60,61N (natural protein)
chain: B1 chain with E39K, D58N, D60N, D61N
B8: human Trx1 K94E (natural protein)
chain: B1 chain with E39K, K94E
B9: human Trx1 A17R,I53R (natural protein)
chain: B1 chain with A17R, E39K, I53R
B10: human Trx1 Q63R,K94E (natural protein)
chain: B1 chain with E39K, Q63R, K94E
B11: human Trx1 Q63R (natural protein)
chain: B1 chain with E39K, Q63R
B12: human Trx1 C73H (natural protein)
chain: B1 chain with E39K, C73H
B13: human Trx1 D60N (natural protein)
chain: B1 chain with E39K, D60N

In the first experiment the target is human thioredoxin reductase 1 (TrxR1) U498C mutant (human) (UniProt Q16881). The experiment in a line: differential scanning fluorimetry; 10 uM hTrxR (U498C), hTrx1 0 to 100 uM, Sypro Orange 1:500, 50 mM Tris, 1 mM EDTA, pH 7.4; Tm of the first denaturation step of TrxR plotted against log [Trx] (Hill plot), EC50 converted to Kd.
Conditions: not given
(DSF heats the sample and reads unfolding from a dye or from intrinsic fluorescence.)
Take B1: the Kd came out at 9.68 µM.
On the same count and under the same terms, under B2 stands 5.28 µM; under B3, 13.6 µM; under B4, 9.8 µM.

The target in a further experiment is recombinant selenocysteine-containing rat TrxR1 (rat) (UniProt O89049).
Test: not given
Conditions: not given
As for B1, the KM of TrxR1 for the Trx1 variant, insulin reduction-coupled assay stood at 1.45 µM.
On the same count and under the same terms, then B5, with 2.22 µM.
Consider B6, for which the KM of TrxR1 for the Trx1 variant, insulin reduction-coupled assay was 1.36 µM.
Same read-out and setting: under B7 stands 5.83 µM; under B8, 3.78 µM.
The same measure, in the same setting: under B9 stands 2.73 µM; under B2, 9.82 µM; under B10, 7.09 µM.
Still for that read-out and setting: under B11 stands 6.37 µM.
Turning to B12, the KM of TrxR1 for the Trx1 variant, insulin reduction-coupled assay is 1.24 µM.
On the same count and under the same terms, then B13, with 3.26 µM.

The next experiment addresses T1, recombinant selenocysteine-containing …. The experiment in a line: enzyme inhibition kinetics (insulin reduction assay, NADPH depletion); 1.25 nM recombinant rat selenocysteine-containing TrxR, 150 uM NADPH, 160 uM insulin, 50 mM Tris-EDTA pH 7.5; Lineweaver-Burk plots, Ki from secondary plot of slopes against the concentration of the redox-inactive mutant. Particulars: both partners purified.
For B4, the inhibitory constant (Ki) came to 5.3 µM.
